Source: patent publication US20230331815A1 (priority 2020, published 2023)

B1: hLF: human lactoferrin (LF), 711 amino acids, SEQ ID NO:4; 70-80 kDa basic protein of the transferrin family (protein, listed as Homo sapiens)
chain: MKLVFLVLLFLGALGLCLAGRRRRSVQWCAVSQPEATKCFQWQRNMRKVRGPPVSCIKRDSPIQCIQAIAENRADAVTLDGGFIYEAGLAPYKLRPVAAEVYGTERQPRTHYYAVAVVKKGGSFQLNELQGLKSCHTGLRRTAGWNVPIGTLRPFLNWTGPPEPIEAAVARFFSASCVPGADKGQFPNLCRLCAGTGENKCAFSSQEPYFSYSGAFKCLRDGAGDVAFIRESTVFEDLSDEAERDEYELLCPDNTRKPVDKFKDCHLARVPSHAVVARSVNGKEDAIWNLLRQAQEKFGKDKSPKFQLFGSPSGQKDLLFKDSAIGFSRVPPRIDSGLYLGSGYFTAIQNLRKSEEEVAARRARVVWCAVGEQELRKCNQWSGLSEGSVTCSSASTTEDCIALVLKGEADAMSLDEGYVYTAGKCGLVPVLAENYKSQQSSDPDPNCVDRPVEGYLAVAVVRRSDTSLTWNSVKGKKSCHTAVDRTAGWNIPMGLLFNQTGSCKFDEYFSQSCAPGSDPRSNLCALCIGDEQGENKCVPNSNERYYGYTGAFRCLAENAGDVAFVKDVTVLQNTDGNNNEAWAKDLKLADFALLCLDGKRKPVTEARSCHLAMAPNHAVVSRMDKVERLKQVLLHQQAKFGRNGSDCPDKFCLFQSETKNLLFNDNTECLARLHGKTTYEKYLGPQYVAGITNLKKCSTSPLLEACEFLRK
B2: Recombinant lactoferrin: recombinant lactoferrin expressed or manufactured in other species, e.g., plant species such as rice (e.g., Ventria Bioscience) (protein, UniProt P02788 20-710, looked up)
Lactotransferrin: GRRRSVQWCAVSQPEATKCFQWQRNMRKVRGPPVSCIKRDSPIQCIQAIAENRADAVTLDGGFIYEAGLAPYKLRPVAAEVYGTERQPRTHYYAVAVVKKGGSFQLNELQGLKSCHTGLRRTAGWNVPIGTLRPFLNWTGPPEPIEAAVARFFSASCVPGADKGQFPNLCRLCAGTGENKCAFSSQEPYFSYSGAFKCLRDGAGDVAFIRESTVFEDLSDEAERDEYELLCPDNTRKPVDKFKDCHLARVPSHAVVARSVNGKEDAIWNLLRQAQEKFGKDKSPKFQLFGSPSGQKDLLFKDSAIGFSRVPPRIDSGLYLGSGYFTAIQNLRKSEEEVAARRARVVWCAVGEQELRKCNQWSGLSEGSVTCSSASTTEDCIALVLKGEADAMSLDGGYVYTAGKCGLVPVLAENYKSQQSSDPDPNCVDRPVEGYLAVAVVRRSDTSLTWNSVKGKKSCHTAVDRTAGWNIPMGLLFNQTGSCKFDEYFSQSCAPGSDPRSNLCALCIGDEQGENKCVPNSNERYYGYTGAFRCLAENAGDVAFVKDVTVLQNTDGNNNEAWAKDLKLADFALLCLDGKRKPVTEARSCHLAMAPNHAVVSRMDKVERLKQVLLHQQAKFGRNGSDCPDKFCLFQSETKNLLFNDNTECLARLHGKTTYEKYLGPQYVAGITNLKKCSTSPLLEACEFLRK
modifications: expressed in rice

Experiments:
[1] = acidic pH conditions during inflammation; cited from earlier work
ACE2 receptor = ACE2 receptor (Homo sapiens, UniProt Q9BYF1); assay: Effect on ACE2 receptor enzyme activity; type: biochemical; details: binds away from the enzyme active site
From the text: The results were proven using a small molecule inhibitor. This type of fusion protein enables both lactoferrin to bind to the HSPG on the cell surface and the receptor binding site on the S protein to bind to the ACE2 receptor on the cell surface, thereby tying up both the receptor and co-receptor on the host cell and preventing entry of the virus into the cell. […] Thus, in some embodiments, a recombinant protein as described herein, wherein the receptor binding domain of the SARS-CoV-2 spike (S) protein is fused with lactoferrin, binds to the host cell surface receptors (e.g., ACE2 receptor and HSPG) and prevent binding of the SARS-CoV-2 virus from binding and entering the host cell. This approach is different from other studies in the art, in which recombinant proteins bind to the viral particles themselves to prevent attachment of the virus to the cell. The present disclosure rather discloses a recombinant protein that binds to the host cell and effectively ties up the cell surface receptors such that the virus particles can no longer bind and infect the cell.

SARS-CoV pseudovirus [2] = type: cell-based
SARS-CoV-2 pseudovirus = type: cell-based
HSPG receptor = assay: hLF cell membrane localization, confocal microscopy of VeroE6/T cells; type: cell-based, African green monkey; details: 2.5 µM hLF, cells chilled at 4° C., anti-hLF staining
Procedure: To visualize cell membrane localization of human lactoferrin (hLF), VeroE6/T cells (0.75×10^5 cells/well) were chilled at 4° C. for 1 hr, incubated with 2.5 µM of hLF. Cells were washed, fixed using 4% PFA (Invitrogen), stained with anti-hLF antibody, and fluorescent image was taken under confocal microscope (FIG. 10, middle row). Cell nuclei were visualized using DAPI (FIG. 10, bottom row). To visualize the cell surface and nuclei at the same time, the confocal images above (i.e., FIG. 10, middle and bottom rows) were merged and are presented in FIG. 10, top row. […] To see the effect of heparin on the binding of hLF to the cell surface (specifically the HSPG receptor), cells were co-incubated with hLF and heparin (H), and the confocal image was taken (FIG. 10, right column).

SARS-CoV pseudovirus [3] = details: cited from earlier work

Sequence of ACE2 receptor (Q9BYF1 18-805): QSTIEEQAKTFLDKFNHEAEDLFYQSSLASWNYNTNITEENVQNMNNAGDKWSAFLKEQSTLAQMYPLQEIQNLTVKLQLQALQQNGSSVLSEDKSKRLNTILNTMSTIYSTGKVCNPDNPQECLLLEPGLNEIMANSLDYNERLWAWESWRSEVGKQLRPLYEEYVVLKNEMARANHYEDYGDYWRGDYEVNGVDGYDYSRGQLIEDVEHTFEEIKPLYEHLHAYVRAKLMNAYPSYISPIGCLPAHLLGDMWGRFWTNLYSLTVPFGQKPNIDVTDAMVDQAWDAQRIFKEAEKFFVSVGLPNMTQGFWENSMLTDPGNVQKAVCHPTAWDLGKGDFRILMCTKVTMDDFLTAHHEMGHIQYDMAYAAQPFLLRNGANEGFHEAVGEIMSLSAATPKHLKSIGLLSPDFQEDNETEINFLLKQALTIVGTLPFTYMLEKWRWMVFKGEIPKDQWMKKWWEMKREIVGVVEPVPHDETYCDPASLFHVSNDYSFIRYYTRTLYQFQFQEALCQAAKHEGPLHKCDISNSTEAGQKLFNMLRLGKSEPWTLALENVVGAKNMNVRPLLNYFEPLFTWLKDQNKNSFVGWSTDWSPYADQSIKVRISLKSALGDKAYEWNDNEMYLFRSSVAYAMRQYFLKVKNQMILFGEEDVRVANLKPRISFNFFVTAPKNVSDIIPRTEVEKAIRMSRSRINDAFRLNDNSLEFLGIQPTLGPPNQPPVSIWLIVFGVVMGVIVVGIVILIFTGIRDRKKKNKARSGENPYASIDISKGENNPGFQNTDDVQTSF

Molecule	iron affinity relative to transferrin [1]	effect on ACE2 receptor enzyme activity / cellular function (ACE2 receptor)	entry of SARS-CoV virus into cells (SARS-CoV pseudovirus [2])	inhibition of SARS-CoV-2 infection in target cells (SARS-CoV-2 pseudovirus; VeroE6 or VeroE6/Tmprss2)	entry of SARS-CoV-2 virus into cells (SARS-CoV-2 pseudovirus; in vitro)	binding to HSPG receptor on the cell membrane (HSPG receptor)	SARS pseudovirus entry (SARS-CoV pseudovirus [3])	anti-viral effective concentration range (SARS-CoV-2 pseudovirus; virus not named)
B1	30 times higher than transferrin	does not interfere with ACE2 receptor activity	prevent entry	efficient inhibitor	prevent entry	binds the HSPG receptor on the cell membrane	prevents SARS pseudovirus entry	
B2								effective in the low µM range
